Results from patent publication US20220324953A1 (JIANGSU HENGRUI MEDICINE, published 2022).

What was measured:
[1] = biological target: T1, human CTGF (antigen of the Biacore assays) (human, UniProt P29279 27-349); assay: Biacore, CTGF immobilised, antibody 150 µg/ml then 50 nM TGF-β1 (competitor TGF-β1)
T1 construct: also called antigen human CTGF; human CTGF protein
T1 sequence (looked up): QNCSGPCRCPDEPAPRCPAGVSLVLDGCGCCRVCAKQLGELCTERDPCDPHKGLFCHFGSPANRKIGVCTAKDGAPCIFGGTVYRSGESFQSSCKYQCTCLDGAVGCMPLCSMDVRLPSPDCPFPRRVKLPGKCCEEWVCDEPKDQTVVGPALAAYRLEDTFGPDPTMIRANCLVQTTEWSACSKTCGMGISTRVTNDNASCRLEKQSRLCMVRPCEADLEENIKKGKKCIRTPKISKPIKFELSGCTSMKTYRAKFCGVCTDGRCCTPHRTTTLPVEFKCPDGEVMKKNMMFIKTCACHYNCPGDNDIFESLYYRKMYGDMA
Method: First, the antigen human CTGF was immobilized onto a CMS biosensor chip (Cat. # BR-1005-30, GE) by amino coupling, with an immobilization level of 1500 RU, and then a high concentration of CTGF antibody (150 μg/ml) was allowed to flow through the surface of the chip for 150 s; 50 nM TGF-β1 protein was injected for 120 s, and the reaction signals were detected in real time with the Biacore T200 instrument to generate a binding and dissociation curve. After the dissociation was completed in each of the experimental cycles, the biosensor chip was washed and regenerated with regeneration buffer.
The resulting experimental data were statistically analyzed with GE Biacore T200 Evaluation version 3.0 software.

[2] = biological target: T2, mouse CTGF (antigen of the Biacore assay) (mouse, UniProt P29268 26-348); assay: Biacore, antibody captured on Protein A, mouse CTGF in flow, 1:1 fit
T2 construct: also called mouse CTGF protein
T2 sequence (looked up): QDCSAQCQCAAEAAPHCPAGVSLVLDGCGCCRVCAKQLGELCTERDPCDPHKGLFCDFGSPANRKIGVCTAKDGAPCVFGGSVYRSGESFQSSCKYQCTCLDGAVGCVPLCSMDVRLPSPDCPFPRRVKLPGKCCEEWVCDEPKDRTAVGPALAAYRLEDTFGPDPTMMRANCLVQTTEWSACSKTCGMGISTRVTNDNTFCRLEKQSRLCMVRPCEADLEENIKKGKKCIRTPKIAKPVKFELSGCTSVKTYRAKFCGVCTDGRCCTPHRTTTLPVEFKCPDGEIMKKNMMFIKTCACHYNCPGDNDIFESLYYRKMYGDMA
From the text: (§1) A certain amount of each of the test antibodies was affinity-captured with Protein A biosensor chip (Cat. # 29127556, GE), and then a certain concentration of human or mouse CTGF was allowed to flow through the surface of the chip. The reaction signals were detected in real time with Biacore instrument to generate a binding and dissociation curve. After the dissociation was completed in each cycle, the biosensor chip was washed and regenerated with Glycine-HCl regeneration solution pH 1.5 (Cat. # BR-1003-54, GE). The running buffer for the assay was 1×HBS-EP buffer solution (Cat. # BR-1001-88, GE).

[3] = biological target: T1, human CTGF (antigen of the Biacore …); assay: Biacore, antibody captured on Protein A, CTGF in flow, 1:1 fit
From the text: as §1

[4] = biological target: T3, human CTGF protein (R&D, Cat No. 9190-CC) (human, UniProt P29279 27-349); assay: ELISA, plate coated with CTGF (R&D 9190-CC)
T3 construct: Bought protein; also called CTGF recombinant protein; CTGF (R&D)
T3 sequence: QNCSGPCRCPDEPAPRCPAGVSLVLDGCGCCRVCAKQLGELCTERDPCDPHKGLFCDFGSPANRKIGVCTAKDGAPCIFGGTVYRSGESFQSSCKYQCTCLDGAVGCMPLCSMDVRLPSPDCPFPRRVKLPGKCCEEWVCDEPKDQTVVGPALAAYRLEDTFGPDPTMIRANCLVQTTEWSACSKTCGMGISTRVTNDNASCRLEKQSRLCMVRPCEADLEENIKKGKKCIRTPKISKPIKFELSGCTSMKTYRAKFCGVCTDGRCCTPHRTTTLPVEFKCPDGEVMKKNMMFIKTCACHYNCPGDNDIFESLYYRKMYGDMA
Method: The binding activity of anti-human CTGF antibody to human CTGF protein was tested by ELISA assay and Biacore. A 96-well microtiter plate was directly coated with the CTGF recombinant protein. The signal strength upon the addition of the antibody was used to determine the binding activity of the antibody to CTGF. The specific experimental procedures were as follows:
The CTGF protein (R&D, Cat No. 9190-CC) was diluted with PBS, pH 7.4 (Shanghai Yuanpei, Cat No. B320) buffer to a concentration of 0.2 μg/ml, 50 μl/well of which was added into the 96-well microtiter plate (Corning, Cat No. CLS3590-100EA), and incubated in an incubator at 37° C. for 2 hours or at 4° C. overnight (16-18 hours). The liquid was removed, 250 μl/ well blocking solution (5% skim milk (BD skim milk, Cat No.232100) diluted in PBS) was added, and incubated in an incubator at 37° C. for 3 hours or at 4° C. overnight (16-18 hours) for blocking. After the blocking was finished, the blocking solution was removed, the plate was washed for 5 times with PBST buffer (PBS containing 0.1% Tween-20, pH 7.4), 50 μl/well of various concentrations of each of the test antibodies (antibodies purified from hybridoma or humanized antibodies) diluted with sample dilution solution were added, and incubated in an incubator at 37° C. for 1 hours. After the incubation was finished, the plate was washed for 3 times with PBST, 50 μl/well of HRP-labeled goat anti-mouse secondary antibody (Jackson Immuno Research, Cat No. 115-035-003) or goat anti-human secondary antibody (Jackson Immuno Research, Cat No. 109-035-003) diluted with sample dilution solution was added, and incubated at 37° C. for 1 hour. The plate was washed for 3 times with PBST, 50 μl/well of TMB chromogenic substrate (KPL, Cat No. 52-00-03) was added, incubated at room temperature for 5-10min, and 50 μl/well of 1 M H₂SO₄ was added to stop the reaction. The absorbance value was read by a microplate reader (Molecular Devices, VERSA max) at a wavelength of 450 nm, and the data was analyzed with GraphPad Prism 5. The binding of CTGF antibody to human CTGF protein was calculated as EC50 value.

B1: Hu164-67yl (antibody, human IgG1, lambda)
heavy: EVTLKESGPVLVKPTETLTLTCTVSGFSLSTFGVHWIRQPPGKGLEWLGVIWRRGGTDYNAAFMSRLTISKDTSKSQVVFTMTNMDPVDTATYYCARDGGFDYWGQGTTVTVSSASTKGPSVFPLAPSSKSTSGGTAALGCLVKDYFPEPVTVSWNSGALTSGVHTFPAVLQSSGLYSLSSVVTVPSSSLGTQTYICNVNHKPSNTKVDKKVEPKSCDKTHTCPPCPAPELLGGPSVFLFPPKPKDTLYITREPEVTCVVVDVSHEDPEVKFNWYVDGVEVHNAKTKPREEQYNSTYRVVSVLTVLHQDWLNGKEYKCKVSNKALPAPIEKTISKAKGQPREPQVYTLPPSRDELTKNQVSLTCLVKGFYPSDIAVEWESNGQPENNYKTTPPVLDSDGSFFLYSKLTVDKSRWQQGNVFSCSVMHEALHNHYTQKSLSLSPGK
light: ETVVTQEPSLTVSPGGTVTLTCRSSIGAVTTSNYANWVQQKPGQAFRGLIGGTSNRAPWTPARFSGSLLGGKAALTLSGVQPEDEAEYYCALWYSTHYVFGGGTKLTVLGQPKANPTVTLFPPSSEELQANKATLVCLISDFYPGAVTVAWKADGSPVKAGVETTKPSKQSNNKYAASSYLSLTPEQWKSHRSYSCQVTHEGSTVEKTVAPTEC
- Function-blocking percentage (%) [1]: 53.9%
- Kd [2]: 0.0363 nM
- koff [2]: 0.00194 s⁻¹
- kon [2]: 5.34e+07 M⁻¹ s⁻¹
- Kd [3]: 0.0662 nM
- koff [3]: 0.00227 s⁻¹
- kon [3]: 3.43e+07 M⁻¹ s⁻¹
- EC50 [4]: 0.06 nM
